Tests used:
FMRP S500D [1] = target: T1, FMRP S500D (UniProt Q06787 1-632, S500D); assay: EMSA; 200 nM RNA, up to 1:2; Fluorescence: 10 mM cacodylic acid pH 6.5, 150 mM KCl, 1 uM BSA, 200 nM RNA; EMSA: 0.5x TBE native gels at 4 C (5 mM KCl for PSD-95 RNAs), incubation at room te
FMRP RGG peptide [2] = target: FMRP RGG peptide (UniProt Q06787); assay: EMSA; 5 mM KCl; Fluorescence: 10 mM cacodylic acid pH 6.5, 150 mM KCl, 1 uM BSA, 200 nM RNA; EMSA: 0.5x TBE native gels at 4 C (5 mM KCl for PSD-95 RNAs), incubation at room temperature 15-20 min; pull-down: RIPA (150 mM NaCl, 50 mM Tris pH 8.0), room temperature
FMRP S500D [3] = target: T1, FMRP S500D; assay: fluorescence titration (2AP); 150 mM KCl, 1 uM BSA; Fluorescence: 10 mM cacodylic acid pH 6.5, 150 mM KCl, 1 uM BSA, 200 nM RNA; EMSA: 0.5x TBE native gels at 4 C (5 mM KCl for PSD-95 RNAs), incubation at room te
FMRP S500D [4] = target: T1, FMRP S500D; assay: EMSA; 200 nM RNA, similar to miR-125a; Fluorescence: 10 mM cacodylic acid pH 6.5, 150 mM KCl, 1 uM BSA, 200 nM RNA; EMSA: 0.5x TBE native gels at 4 C (5 mM KCl for PSD-95 RNAs), incubation at room te
FMRP S500D [5] = target: T1, FMRP S500D; assay: EMSA; 200 nM RNA, complete at 1:2; Kd estimated low nM; Fluorescence: 10 mM cacodylic acid pH 6.5, 150 mM KCl, 1 uM BSA, 200 nM RNA; EMSA: 0.5x TBE native gels at 4 C (5 mM KCl for PSD-95 RNAs), incubation at room te
FMRP RGG peptide [6] = target: FMRP RGG peptide (UniProt Q06787); assay: EMSA; 200 nM RNA, up to 1:2; Fluorescence: 10 mM cacodylic acid pH 6.5, 150 mM KCl, 1 uM BSA, 200 nM RNA; EMSA: 0.5x TBE native gels at 4 C (5 mM KCl for PSD-95 RNAs), incubation at room temperature 15-20 min; pull-down: RIPA (150 mM NaCl, 50 mM Tris pH 8.0), room temperature

Binder: UGGAGUGUGACAAUGGUGUUUG (ssRNA) [miR-122]
- binding result (FMRP S500D [1]): no binding

Binder: GGGAGGGAGGGUGGG (structured_RNA) [PSD-95 Q2]
- binding result (FMRP RGG peptide [2]; G-quadruplex): binds

Binder: GGGAAAAGGGAGGGAUGGG (structured_RNA, A11 replaced by 2-aminopurine) [PSD-95 Q11234 11-2AP]
- Kd (FMRP S500D [3]): 66 nM

Binder: UAGGUAGUUUCAUGUUGUUGGG (ssRNA) [miR-196a-1]
- binding result (FMRP S500D [1]): binds

Binder: UCCCUGAGACCCUAACUUGUGA (ssRNA) [miR-125b]
- binding result (FMRP S500D [4]): binds

Binder: GGGAGGGAGGGUGGG (structured_RNA, A4 replaced by 2-aminopurine) [PSD-95 Q2 4-2AP]
- Kd (FMRP S500D [3]): 100 nM

Binder: UCCCUGAGACCCUUUAACCUGUGA (ssRNA) [miR-125a]
- binding result (FMRP S500D [5]): binds
- binding result (FMRP RGG peptide [6]): no binding

Binder: UCCCUGAGACCGUUUAACCUGUGA (ssRNA) [miR-125a-Mut2]
- binding result (FMRP S500D [4]): binds

B1: PSD-95 Q1-Q2 (structured_RNA)
RNA: GGGAAAAGGGAGGGAUGGGUCUAGGGAGUGGGAAAUGCGGGAGGGAGGGUGGG
- binding result (FMRP RGG peptide [2]; two G-quadruplexes): binds

Binder: GGGAAAAGGGAGGGAUGGGUCUAGGG (structured_RNA) [PSD-95 Q1]
- binding result (FMRP RGG peptide [2]; G-quadruplex, multiple conformations): binds
